From US20260167710A1 (GlaxoSmithKline, published 2026)

How the values were obtained:
[1] = biological target: T1, IL-33 95-270 (UniProt O95760 95-270); assay: cell-based or functional assay
T1 sequence (looked up): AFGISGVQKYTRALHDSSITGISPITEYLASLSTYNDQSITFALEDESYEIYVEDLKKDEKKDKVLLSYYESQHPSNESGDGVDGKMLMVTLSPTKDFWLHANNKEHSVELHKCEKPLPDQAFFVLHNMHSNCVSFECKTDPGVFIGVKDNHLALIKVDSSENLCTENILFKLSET

[2] = biological target: T2, IL-33 99-270 (UniProt O95760 99-270); assay: cell-based or functional assay
T2 sequence (looked up): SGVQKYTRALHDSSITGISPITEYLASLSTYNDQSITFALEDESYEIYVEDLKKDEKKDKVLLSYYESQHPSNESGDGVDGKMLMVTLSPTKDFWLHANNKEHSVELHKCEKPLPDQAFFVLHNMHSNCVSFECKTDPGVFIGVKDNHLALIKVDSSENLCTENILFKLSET

[3] = biological target: T3, IL-33 109-270 (UniProt O95760 109-270); assay: cell-based or functional assay
T3 sequence (looked up): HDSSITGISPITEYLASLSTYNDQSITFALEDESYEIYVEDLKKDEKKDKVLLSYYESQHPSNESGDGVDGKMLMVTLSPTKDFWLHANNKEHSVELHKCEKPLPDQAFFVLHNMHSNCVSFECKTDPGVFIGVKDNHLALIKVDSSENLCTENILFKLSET

[4] = biological target: spIL-33; assay: cell-based or functional assay
[5] = biological target: T4, Mature IL-33 (IL-33 113-270) (UniProt O95760 113-270); assay: cell-based or functional assay
T4 sequence (looked up): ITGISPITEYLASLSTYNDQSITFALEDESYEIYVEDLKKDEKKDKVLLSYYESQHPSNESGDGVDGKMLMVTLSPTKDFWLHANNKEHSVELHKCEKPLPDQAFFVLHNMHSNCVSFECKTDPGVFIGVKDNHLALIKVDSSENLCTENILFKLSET

[6] = biological target: T5, human IL-33 (human, Biotinylated in Example 2; the site is not stated.); assay: cell-based or functional assay
T5 chain: T4 sequence (looked up)

[7] = biological target: T5, human IL-33; assay: cell-based or functional assay
[8] = biological target: T5, human IL-33; assay: cell-based or functional assay
[9] = biological target: T5, human IL-33; assay: MSD-SET solution equilibrium titration, 25 C
[10] = biological target: T5, human IL-33; assay: MSD-SET solution equilibrium titration, 37 C
[11] = biological target: T6, cynomolgus IL-33 (cynomolgus monkey, UniProt A0A2K5W3I1 112-269); assay: MSD-SET solution equilibrium titration, 37 C
T6 construct: also called cyno IL-33; cynomolgus monkey IL-33
T6 sequence: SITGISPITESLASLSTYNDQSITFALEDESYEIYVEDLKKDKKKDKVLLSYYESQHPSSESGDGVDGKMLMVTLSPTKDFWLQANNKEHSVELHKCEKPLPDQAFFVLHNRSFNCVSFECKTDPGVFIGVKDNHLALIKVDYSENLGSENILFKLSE

[12] = biological target: T7, human IL-1a (human, UniProt P01583 113-271); assay: BLI (Octet RED384), antibody on protein A sensors, single shot
T7 construct: also called IL-1a (R&D Systems #200-LA)
T7 sequence (looked up): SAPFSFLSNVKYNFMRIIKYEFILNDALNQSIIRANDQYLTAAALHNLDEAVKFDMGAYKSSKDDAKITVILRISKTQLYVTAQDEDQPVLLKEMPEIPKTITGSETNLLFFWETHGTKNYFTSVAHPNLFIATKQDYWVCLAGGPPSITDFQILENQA

[13] = biological target: T8, human IL-1b (human, UniProt P01584 117-269); assay: as above
T8 construct: also called IL-1b (R&D Systems #201-LB)

[14] = biological target: T9, hFcgRI (human, UniProt P12314 16-292); assay: SPR (ProteOn XPR36), anti-poly-histidine IgG surface, antibody as analyte, equilibrium fit, 25 C
T9 construct: extracellular domain; the chip carried an anti-poly-histidine IgG; also called recombinant soluble human Fc gamma receptor I
T9 sequence (P12314 16-292): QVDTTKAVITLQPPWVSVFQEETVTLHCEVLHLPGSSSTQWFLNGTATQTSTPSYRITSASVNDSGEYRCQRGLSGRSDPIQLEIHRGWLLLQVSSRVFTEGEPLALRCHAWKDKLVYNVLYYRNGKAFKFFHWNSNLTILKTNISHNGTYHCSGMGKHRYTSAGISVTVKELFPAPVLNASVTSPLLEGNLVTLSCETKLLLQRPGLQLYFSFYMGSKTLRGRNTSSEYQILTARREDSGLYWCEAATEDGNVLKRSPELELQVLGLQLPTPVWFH

[15] = biological target: T10, hFcgRIIa (R131) (human, UniProt P12318 34-217); assay: as above
T10 construct: extracellular domain
T10 sequence (looked up): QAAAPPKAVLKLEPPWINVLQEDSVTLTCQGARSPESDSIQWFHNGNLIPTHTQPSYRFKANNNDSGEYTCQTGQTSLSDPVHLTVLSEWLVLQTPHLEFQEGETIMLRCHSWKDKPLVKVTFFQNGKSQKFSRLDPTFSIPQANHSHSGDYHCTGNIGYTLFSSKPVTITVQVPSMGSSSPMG

[16] = biological target: T11, hFcgRIIIa (F158) (human, UniProt P08637 17-208); assay: as above
T11 construct: extracellular domain
T11 sequence (P08637 17-208): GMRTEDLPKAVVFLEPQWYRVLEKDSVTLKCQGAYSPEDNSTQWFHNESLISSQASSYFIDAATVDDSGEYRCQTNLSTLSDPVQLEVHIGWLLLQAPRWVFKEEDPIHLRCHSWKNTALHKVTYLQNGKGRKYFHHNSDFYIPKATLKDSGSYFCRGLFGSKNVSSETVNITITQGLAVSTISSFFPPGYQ

B1: 22A06-458 (antibody, human IgG1, kappa)
heavy: QVQLVQSGAEVKKPGASVKVSCKASGYTFISYGMHWVRQAPGQGLEWMGEINPHGGSTSYAQKFKGRVTMTRDTSTSTVYMELSSLRSEDTAVYYCARPSAAYSHYLGIDLWGRGTLVTVSSASTKGPSVFPLAPSSKSTSGGTAALGCLVKDYFPEPVTVSWNSGALTSGVHTFPAVLQSSGLYSLSSVVTVPSSSLGTQTYICNVNHKPSNTKVDKKVEPKSCDKTHTCPPCPAPELLGGPSVFLFPPKPKDTLYITREPEVTCVVVDVSHEDPEVKFNWYVDGVEVHNAKTKPREEQYNSTYRVVSVLTVLHQDWLNGKEYKCKVSNKALPAPIEKTISKAKGQPREPQVYTLPPSRDELTKNQVSLTCLVKGFYPSDIAVEWESNGQPENNYKTTPPVLDSDGSFFLYSKLTVDKSRWQQGNVFSCSVMHEALHNHYTQKSLSLSPGK
light: DIQMTQSPSSVSASVGDRVTITCRASQGISSWLAWYQQKPGKAPKLLIYAASRLQSGVPSRFSGSGSGTDFTLTISSLQPEDFATYYCQQANVFPLTFGGGTKVEIKRTVAAPSVFIFPPSDEQLKSGTASVVCLLNNFYPREAKVQWKVDNALQSGNSQESVTEQDSKDSTYSLSSTLTLSKADYEKHKVYACEVTHQGLSSPVTKSFNRGEC
For B1, the “IC50, inhibition of 25 pM IL-33 isoform in HEK-Blue reporter assay” value (“IC50, inhibition of 25 pM IL-33 isoform” for short) [1] was 162 pM, the “IC50, inhibition of 25 pM IL-33 isoform” value [2] was 436 pM and the “IC50, inhibition of 25 pM IL-33 isoform” value [3] was 254 pM. For the same binder, the “IC50, inhibition of 25 pM IL-33 isoform” value [4] was 90.3 pM, the “IC50, inhibition of 25 pM IL-33 isoform” value [5] was 18.2 pM and the “IC50, inhibition of 30 ng/mL IL-33 induced IFN-γ secretion from whole blood, non-pre-complexed, Mean” value [6] was 1.57 nM. For the same binder, the “IC50, inhibition of 30 ng/mL IL-33 induced IFN-γ secretion from whole blood, non-pre-complexed, donor #32871” value [6] was 0.97 nM, the “IC50, inhibition of 30 ng/mL IL-33 induced IFN-γ secretion from whole blood, non-pre-complexed, donor #90237” value [6] was 2.6 nM and the “IC50, inhibition of 30 ng/mL IL-33 induced IFN-γ secretion from whole blood, non-pre-complexed, donor #91680” value [6] was 1.6 nM. The “IC50, inhibition of 30 ng/mL IL-33 induced IFN-γ secretion from whole blood, non-pre-complexed, donor #91955” value [6] was 0.48 nM, the “IC50, inhibition of 30 ng/mL IL-33 induced IFN-γ secretion from whole blood, non-pre-complexed, donor #91986” value [6] was 3.04 nM and the “IC50, inhibition of 30 ng/mL IL-33 induced IFN-γ secretion from whole blood, non-pre-complexed, donor #92251” value [6] was 0.74 nM. For the same binder, the “pIC50, inhibition of 30 ng/mL IL-33 induced IFN-γ secretion from whole blood, non-pre-complexed, Mean” value [6] was 8.89, the “pIC50, inhibition of 30 ng/mL IL-33 induced IFN-γ secretion from whole blood, non-pre-complexed, donor #32871” value [6] was 9.01 and the “pIC50, inhibition of 30 ng/mL IL-33 induced IFN-γ secretion from whole blood, non-pre-complexed, donor #90237” value [6] was 8.58. The “pIC50, inhibition of 30 ng/mL IL-33 induced IFN-γ secretion from whole blood, non-pre-complexed, donor #91680” value [6] was 8.79, the “pIC50, inhibition of 30 ng/mL IL-33 induced IFN-γ secretion from whole blood, non-pre-complexed, donor #91955” value [6] was 9.31 and the “pIC50, inhibition of 30 ng/mL IL-33 induced IFN-γ secretion from whole blood, non-pre-complexed, donor #91986” value [6] was 8.51. For the same binder, the “pIC50, inhibition of 30 ng/mL IL-33 induced IFN-γ secretion from whole blood, non-pre-complexed, donor #92251” value [6] was 9.13, the “IC50, inhibition of 1 ng/mL human IL-33 induced IL-6 production, mouse bone marrow-derived mast cells” value [7] was 0.0312 nM and the “IC50, inhibition of 1 ng/mL human IL-33 induced IL-13 production, mouse bone marrow-derived mast cells” value [7] was 0.028 nM. The “IC50, inhibition of 1 ng/mL human IL-33 induced IL-18 production, mouse bone marrow-derived mast cells” value [7] was 0.0613 nM, the “IC50, inhibition of 1 ng/mL human IL-33 induced TNF-α production, mouse bone marrow-derived mast cells” value [7] was 0.0374 nM and the “pIC50, inhibition of 1 ng/mL human IL-33 induced IL-6 production, mouse bone marrow-derived mast cells” value [7] was 10.5. For the same binder, the “pIC50, inhibition of 1 ng/mL human IL-33 induced IL-13 production, mouse bone marrow-derived mast cells” value [7] was 0.55, the “pIC50, inhibition of 1 ng/mL human IL-33 induced IL-18 production, mouse bone marrow-derived mast cells” value [7] was 10.2 and the “pIC50, inhibition of 1 ng/mL human IL-33 induced TNF-α production, mouse bone marrow-derived mast cells” value [7] was 10.4. For the same binder, the “IC50, inhibition of 10 ng/mL human IL-33 induced IL-6 production, mouse bone marrow-derived mast cells” value [8] was ~0.566 nM, the “IC50, inhibition of 10 ng/mL human IL-33 induced IL-13 production, mouse bone marrow-derived mast cells” value [8] was ~0.567 nM and the “IC50, inhibition of 10 ng/mL human IL-33 induced IL-18 production, mouse bone marrow-derived mast cells” value [8] was ~0.631 nM. The “IC50, inhibition of 10 ng/mL human IL-33 induced TNF-α production, mouse bone marrow-derived mast cells” value [8] was ~0.581 nM, the “pIC50, inhibition of 10 ng/mL human IL-33 induced IL-6 production, mouse bone marrow-derived mast cells” value [8] was ~9.25 and the “pIC50, inhibition of 10 ng/mL human IL-33 induced IL-13 production, mouse bone marrow-derived mast cells” value [8] was ~9.25. The “pIC50, inhibition of 10 ng/mL human IL-33 induced IL-18 production, mouse bone marrow-derived mast cells” value [8] was ~9.2, the “pIC50, inhibition of 10 ng/mL human IL-33 induced TNF-α production, mouse bone marrow-derived mast cells” value [8] was ~9.24 and the Kd [9] was 0.0033 nM. The Kd [10] was 0.0135 nM, the Kd [11] was 0.0565 nM and the binding result [12] was “no binding (tested: 100 nM)”. The binding result [13] was “no binding (tested: 100 nM)”, the Kd [14] was 24.3 nM and the Kd [15] was 502 nM. It also gave a Kd [16] of 987 nM.
